assay: soluble on expression in E. coli; label from the status in PepcDB or PDB records

Sequence	soluble on expression in E. coli
MGSDKIHHHHHHMMLGPEGGEGYVVKLRGLPWSCSIEDVQNFLSDCTIHDGVAGVHFIYTREGRQSGEAFVELESEDDVKLALKKDRESMGHRYIEVFKSHRTEMDWVLKHSGPNSADSANDGFVRLRGLPFGCTKEEIVQFFSGLEIVPNGITLPVDPEGKITGEAFVQFASQELAEKALGKHKERIGHRYIEVFKSSQEEVRSYSDPPLKFMSVQRPGPYDRPGTARRYIGIVKQAGLDRMRSGAYSAGYGGYEEYSGLSDGYGFTTDLFGRDLSYCLSGMYDHRYGDSEFTVQSTTGHCVHMRGLPYKATENDIYNFFSPLNPVRVHIEIGPDGRVTGEADVEFATHEEAVAAMSKDRANMQHRYIELFLNSTTGASNGAYSSQVMQGMGVSAAQATYSGLESQSVSGCYGAGYSGQNSMGGYD	not soluble
MGSDKIHHHHHHMMQLLVTGATGFVGKTLCSALRRQSFPVKAIGRAGTIRADALGDQVASIDGQTDWSLILDGINAVIHLAARVHVMREQLADPLAAYRETNVEGTLNLARQAAKAGVKRFVFISSIKVNGEQTLPGKPFTAYDVPAPEDAYGISKFEAEQGLLALARETGMDVVVIRPPLVYGPGVKGNFASMMKLVKSGIPLPLGAIHNQRSLVAIDNLVNLIVTCIDHPAAANQVFLVSDGEDLSTSDLLRRLAKAAGVSSRLMPVSARWLEMGLRMCGKRLIAQRLLGSLQVDISKTRELLGWVPPISVDEGLKRCFSTKG	not soluble
MGSDKIHHHHHHMMTISNGNLRVDLRLIADMVEPGSRVLDVGCGEGALLDWLGRTKNVDGRGIELSMAGVSAAVSHGLSVIQGDADTDLKDYPSGAFDYVILSQTLQATYAPRTVLSNMLRIGRRAIVSFPNFGHWRVRLHLLTHGRMPVTDTLAYEWYDTPNIHFCTIRDFLDLCRDLGIRVERSIPLDRSGRTMAIPSCEGIANLFADQGLFVLSREG	not soluble
MGSDKIHHHHHHMNAETPQNLMVASLQAPPVRTVVADPQSVHAAIESRFCCREFLADPVERETMERILRVASWAPSGSNNQPWKVYVVQGASRAALSQKVRAAQDALSQDPTLADNYREPYQYYPVEWVSPYIERRRACGFGLYGVLNIARGDRVRMNEQLLRNFDFFGAPVGIFFTNDEILAEGALVDTAMFVQNVMLAARAEGLHTCVQAAWNRFSSVVLPHIGAQGERLVCALALGHADVDAPVNTFRPDRADPASFTAWLD	not soluble
MGSDKIHHHHHHMNAMTQVSPLLEMRGICKTFPGVKALDDVSFDIYPGEVHMLLGENGAGKSSLMKVLCGVYVADAGEFHHQGQRVEVSGPADTMRLGIAVIFQEFSLVPYLDIAQNIFLGREPRGRVPGSVDHAKMHAEARRLLDTLGMDISTHTPVHRLGVAQQQMIEIAKALSQNARILVLDEPTAALSERETEKLFGVIARLKADGVSMIYISHRMAEVFALGDRITVMRDGRKVGSYMPGDATPDELVARMVGRKVDMGYTRTRGGPVGEVALDMQGVSADNGIDDITLQVRAGEIVGLAGLVGSGRSEVARAVFGADPVRAGEIRIFGKSMRGGPDKARALGAALIPESRKTEGLALIRSVRDNLLLAGLRRAFPAHWYRSGKAAQLSTREIGRLRIATPSGDQLAQFLSGGNQQKIVIGKWLVAESRLFIFDEPTRGIDVGAKAEIFALIDGLVKQGAAVLLISSELPEIINVCDRTYVMRGGRVAGELAHDAMTEESILQLGMNDA	not soluble
MGSDKIHHHHHHMNATQTQMRREINEIPDAVERLLTEGAGAVAATAADIRDLQPSYLLSVARGSSDHASTYLKYASELLLGLPMASVGPSVKSIYGVDLHCKGALSISVSQSGKSPDIVQLTSAFRDKGAYTVAITNDAGSPLAETAAAVLPIHAGPELSVAATKTFVTSLVAGLWVLAEVKQDAALLEAILRLPGHLAKAKDCDWSAAIEAIDGQSLYTLGRGPSWAISNEAALKFKETCQIHAESYSAAEVLHGPVSIVGENFPVIAFAAADAAEESVGEMVAALGDKGARVFATTHKAKGAEVLPHVRTDHWITDPIASIVSFYGMVEAVAARRGVNPDAPRHLNKVTETV	not soluble
MGSDKIHHHHHHMNDALITDALIRGRHAKRGFHRERPVPLETVRDILAVAKYAPSSSNTQPWRCYVVIGDARDRLANAAVEAYRADPENLTPEYPFFPKPLHEPYSARFNTFRGQLGDAQGVPRSDKAGRRRDVERQFRFFDAPIGLIFTMDRRLEWASFLCYGCFLQNIMLAARARGLDTCPQQIWSLQYAVLREQLDIPEGEMVVAGMSLGYADDSLPENNMALRRLELEEFVSVIEG	not soluble
MGSDKIHHHHHHMNEAFLSLTPAQIRHRLHAAPELSGQETETARRVAGWLEQAGATRIVTGLGGHGVAGVFAGTLPGPRVMFRAELDGLPIDETAEIAWKSTCEHVAHSCGHDGHMAVLLGLAQRLAEQPPTHGETVLLFQPSEETGRGAREVVESSRFEEIAPDHVYALHNLPGKPLGEVSVREGAMTCASRGLIIRLNGLCAHAAHPEQGRNPALAMCRILQGLKRLPQQLPDDQGLVMVTLIHARLGEVAFGTSPGQAEVMATLRTEDDAMMRALAEASVALARAEAEEDDLGIEIDWCDVFQATRNHPAAVASIREAARSLNMPLTALPEAHRWSEDFGWLAAQGQGALLTLGAGERCLPLHNPGYDFPDDLLDTGIALFERLVRLHQSDV	not soluble
MGSDKIHHHHHHMNEQWFLLGDIHGSAQPVHYFYQKNKERLSLDSSENFMILLGDVGANFALTGQRDHKFKSELSKLPFTFICLRGNHEARVKTVMDKNPDGWETISKYDGSIFVEKEFPYIEYLADGPAVYNFKSYKTLSLPGAYSVDKYYRQARHLTWYKDEQLNEKEMELGRKLCRNEAPFDLVLSHTCPYLYEPTDLFLAGLDQSTVDSTMERYLGEIEFNLDYKRWAFGHFHADRLYPWADGRQMLMLFNENVVNLDKFMNMTEKQSFKDIIA	not soluble
MGSDKIHHHHHHMNFDFDLPAKALFRAMPICRENTRFNIDGVLIDPDPNGGAWLVATDGKGMLVQYDPDTKVPEKCVVKVSAAWLTETRFDYDMSLIGDLNDIHWCDTRLEFSKDTMTAMSSDFDIAHCLAEAGPDVFCQIRYNPISFPDWRKALDTSANTSELARPVERQTALDTGYLTDLIGWSRGFQVNPAPAGHARLISFVGEPNTFAVLMPMVADATDPLPPLLERAGRADLIQGPQRAAE	not soluble
MGSDKIHHHHHHMNFPRPLVPATLVQRYKRFLFDAILADGTAITGSCPNTGSMRGLTIPGSPIWLSEHDSPTRKYRHMLEIVEADGTLVGINTGLPNRIAEEAIMAGQVGNLHTYGTLRREQRYGRNSRIDILLSDAEKGLAYVEVKNVHFSRVRGLAEFPDSPTQRGAKHLEELGDMVEAGHRAIMLYLIQRGDCSRFRICRELDPVYARAFERASARGVEAYAVKCAVSPGQIVAAGPIVVDEPVPAVL	not soluble
MGSDKIHHHHHHMNFTQNEKLKQLSERSIVIGVDIASELHYARAFDWRGVELGKVFKFENSAEGFKNLYAWIERIKRQAQKDSIVVGAEPTGHYWFGLASYLKEQNIKLVLVNPFHVKRSKELDDNHPSKTDAKDPKTIAKLVIEGRYNEPYIPEGLYAELRIAVTCRVRIQKEMNSIKNRIQRWLKIYFPEHETVFGKFDATSSMLVLQVAPLPRDIERLGVEGINRIWRDNKLRAVGMKRAKSLYEAAQKSIGCTEGESCSRMEIQLLLQDYHTKTAQYQAVTETIDGLCRQIPEVAKLLEIKGVGLVTVAGFLSEVGDIKRFNSPKQIQKLAGLALRESSSGKHKGQTTISKRGRARLRAILFQAVMPLVAKNAEFAEIHNYYTTRTQNPLKKKQSLIALSCKLIRVFYAILTKGTDYDPKKLIMDIHRPVEYLAA	not soluble
MGSDKIHHHHHHMNHTSADTTLRAFAQLIAEGTCLPAEERAPGQLKTGVDLGTANIVLSVVDANNRPVTGAMFPSTVVRDGIVVDYVGAVSVVRRLKAELEDRLGCPLTFAGTAIPPGILAGNVKAIANVVEAAGFEVADVSDEPTAASRVLGLREGAVVDVGGGTTGISILKNGEVVFTDDEATGGTHMTLVLAGAHGVSFEEAEAMKKDTAAARDVFAVVQPVVEKMASIVKRCLKGYDVETVYVVGGACTFDQFEQVFRKEIGLTIVKPAEPLLVTPLGIAMYGATPGEGAL	not soluble
MGSDKIHHHHHHMNIIPYRVTLLEPLLATRIAGDPNSGVSYPYVPGSLVRGAAVAMYARNKGIVAVDAREEEARRLFFDGRTRYLNAYPADASGRRTLPTPRSLFHVEGEESPIYDFALEVIDAVNEETVQFVGAARDSQPFCRIDDSNIFFISPKRRINVHTQRDRVKGRATEVSGAVFQYDALEEGQTFAGWVLVDKDDDVELLSSLLRHIYRLGGSSNSGYGRVTVAVDAPQNIQVWREIPKQIVPIDAGETFVVTLLSDTLVRDPNTGQYTWDLRPALQQLLSVEIEHIHPIAGEEEQRSVWRLDEVGGFNRAWGLPLPQAQAIAGGSVFVFRARSPIPAQTIAGAEWDGIGERRAEGFGRLAFNWQTETELIRVDPPVVSLIDQLVPNLDGPARNIAQQMAMRMLRRELDAKLRKAINDIRPKHLSISNTQLSRLRIIAREALPNGDLARLQKYLDENIKTRRSVRDQFDRTRLGSEERLSQWLEERLSQPETVWDKIGAQTLSKRIGANVLVSTRDDTELAREYTIRLIDGVLARLAKERRREDGGRQ	not soluble
MGSDKIHHHHHHMNILEYENYHEDKTHVELTFPYNTYLCSIPLDFSGVPLHWHDDMELIYIKKGCGHISVDFKEYHVTAPSLVLILPGQLHSIDQYMDESMEYENIIFSLSMLLPGKYDYTKEDFLTPLLAGRFTVPTVFTPVYPYYEDVVAPIDACDEICKTMPQGYQLYIKSKLYEFFFVLDNRCRNLTKPLKSKKTLDKMKVVLKYVENNYADKISIADIADVAGFSESHFMRYFKETMGTSFVDYLKDYRLTMAARLLQSSDSSVLSISGEVGFESLSYFNRAFKKHYGMTPLQYRKGS	not soluble
MGSDKIHHHHHHMNILLVDDDRFIIEALREKINWAKLHIDIVYVAYSLTQAQNIIREHPIDLMISDIEMPQGSGLELLSWIRNEKYDIKTIFLTNYADFNYAQKAIELQSFEYYLKPINFEKLEFIIQKAISKIENHNLNGKNDSLLQIEDNFWYDYLRKPQISRIDELENIASKQDFILKQHQYFFLAVLTINLNEEDYSVETPSWTSQLKRELQRISQPSYKLISLFKMESQVDQYVCLFRVDSSKRSDKLAYEIHSQISNNFSKYSNIIYKSCHKISDILFHTKELYTYNEQYVSYWNTITCVPHSFPTSFKTETLSITFLDTLSEYELREKINSLAYNSQIPTFTLQQILLDWTQQIGIYLDQNGISAHKLFQNSTHDFLFQRRFHSIESFQDYFDYYWSHAKKFATNIENQKNSIQRIVEYIDHHYYEDINRSILADVVYLSADHLARIFKKETGETLVKYITDKRINAAKSLLSQTNISISQVSCQVGYDNYSYFTKIFKQRTGLSPGDYRKTYQNKM	not soluble
MGSDKIHHHHHHMNIRLYSDLHIEFEDFHAPADGADVVVLAGDVDVGVRGIDWIVRQEFSCPVIYVMGNHEYYNHRYPSLLGKVKQHAAGKNIHILENESVEIDGVRFHGATLWADFKLFGDPRVAGYECQQVMRDYKKIRKEPSYSKLRSIDVASIHNQSLSWLAESLASSKSSVNVVVTHHAPSMLSVPAYYQDNLVTAAYASDLSAFIDEHKPDYWLHGHLHTSSNYYLGACQVLANPKGYKGEVNESFDPSFSLTLAKRGV	not soluble
MGSDKIHHHHHHMNKDFTFTIKSIRLDEDYHPSDSTRITTNFANLARGSYRQANLRNALKMIDNSFNALANWDNPKGDRYSVELEIISVDMDIEGSGKTFPSIEILKTNIVDHQTNQRIEGIVGNNFSSYVRDYDFSVLLQAHNKDQPNFSIPDNFGELHGKLFQYFVNSNAYKQNFKKTPVICLSVSDNKTYHRTENQHPVLGVEYQPNESSLTEQYFKKMGLQVRYFMPPNSVAPLAFHFFGDLLNDYTNLELISTISTMGTFQKIYRPEIYNANAAAGKSYQPNLKNLDHSLTQIVYDREERSKLANEQGKFAEKHFIKPYQTVLEQWSANYV	not soluble

Source: the DeepSol protein solubility set
